Laboratory results: patent US20130122591

What was measured:
Experiment in all cases: cell_activity
[1] = tested on: TALEN 101276 (engineered)
[2] = tested on: ZFN 29250 (engineered)
[3] = tested on: ZFN 29223 (engineered)
[4] = tested on: ZFN 29216 (engineered)
[5] = tested on: TALEN 101267 (engineered); conditions: pair with 101270, K562, 1600 ng, day 3
[6] = tested on: TALEN 101286 (engineered); conditions: pair with 101284, K562, 1600 ng, day 3
[7] = tested on: ZFN 30179 (engineered)
[8] = tested on: ZFN 29251 (engineered)
[9] = tested on: TALEN 101270 (engineered); conditions: pair with 101267, K562, 1600 ng, day 3
[10] = tested on: TALEN 101288 (engineered)
[11] = tested on: TALEN 101278 (engineered)
[12] = tested on: TALEN 101271 (engineered); conditions: pair with 101272, K562, 1600 ng, day 3
[13] = tested on: TALEN 101272 (engineered); conditions: pair with 101271, K562, 1600 ng, day 3
[14] = tested on: TALEN 101284 (engineered)
[15] = tested on: TALEN 101282 (engineered); conditions: pair with 101288, K562, 1600 ng, day 3

“AACTTTTGTTAAATTCCTGATTTTATTTCTGTAGGACTGAGCGGCTTGCTCGAGATGTG (double strand) [canine HPRT region (29250/101276 site)]” was tested. Which activity ([1]; pair with 101278, canine D17, 200 ng, 0 at 100 and 400 ng) did it give?
Its activity is 2.5 % NHEJ.

And the activity ([2]; pair with 30179, canine D17, 100 ng)?
The activity was 9.2 % NHEJ.

With “AAGCACTGAATAGAAATAGTGATAGATC (double strand) [29223 site]” as the substance, how does the activity ([3]; pair with 29216, rhesus LLC-MK2, printed as 29233) read?
Its activity is 2.7 % NHEJ.

How did the activity ([2]; pair with 29251, K562, 800 ng, day 3) turn out when “ATCTCGAGCAAGACGTTCAGTCCTACAG (double strand) [29250 site]” was run?
The activity was 69.2 % NHEJ.

What about the activity ([2]; pair with 29251, rhesus LLC-MK2 (sites stated conserved)) of the same substance?
Its activity is 8.2 % NHEJ.

For “ATGTAATCCAGCAGGTCAGCAAAGAATT (double strand) [29216 site]”, which activity ([4]; pair with 29223 (printed 29233), rhesus LLC-MK2) is on record?
Its activity is 2.7 % NHEJ.

With “TCCGTTATGGCGAC (double strand) [101267 site]” as the substance, how does the activity [5] read?
Its activity is 31.8 % NHEJ.

With “TCTATCACTATTTCTAT (double strand) [101286 site]” as the substance, how does the activity [6] read?
Its activity is 35.3 % NHEJ.

“TGATGAAGGAGATGGGAGGCCATCACAT (double strand) [29251/30179 site]” was tested. Which activity ([7]; pair with 29250, rhesus LLC-MK2) did it give?
Its activity is 0 % NHEJ.

And the activity ([8]; pair with 29250, K562, 800 ng, day 3)?
Its activity is 69.2 % NHEJ.

What about the activity ([8]; pair with 29250, rhesus LLC-MK2 (sites stated conserved)) of the same substance?
Its activity is 8.2 % NHEJ.

How did the activity [9] turn out when “TGCTCACCACGAC (double strand) [101270 site]” was run?
The activity was 31.8 % NHEJ.

Which results are given for “TGGATCTATCACTATTT (double strand) [101288 site]”?
activity ([10]; pair with 101284, K562, 1600 ng, day 3): 62.2 % NHEJ; activity ([10]; pair with 101284, rhesus LLC-MK2): 8.7 % NHEJ

“TGGCCTCCCATCTCCT (double strand) [101278 site]” was tested. Which activity ([11]; pair with 101276, K562, 1600 ng, day 3) did it give?
The activity was 35.3 % NHEJ.

What about the activity ([11]; pair with 101276, rhesus LLC-MK2) of the same substance?
The activity was 7.6 % NHEJ.

With “TGGCGTCGTGGTGAGC (double strand) [101271 site]” as the substance, how does the activity [12] read?
Its activity is 19.1 % NHEJ.

“TGGGCCTGAACCGGCC (double strand) [101272 site]” was tested. Which activity [13] did it give?
The activity was 19.1 % NHEJ.

With “TGTAGGACTGAACGTCTT (double strand) [101276 site]” as the substance, how does the activity ([1]; pair with 101278, K562, 1600 ng, day 3) read?
The activity was 35.3 % NHEJ.

And the activity ([1]; pair with 101278, rhesus LLC-MK2)?
Its activity is 7.6 % NHEJ.

With “TTGCTGACCTGCTGGATT (double strand) [101284 site]” as the substance, how does the activity ([14]; pair with 101288, K562, 1600 ng, day 3) read?
Its activity is 62.2 % NHEJ.

And the activity ([14]; pair with 101288, rhesus LLC-MK2)?
The activity was 8.7 % NHEJ.

For “TTTGCTGACCTGCTGGAT (double strand) [101282 site]”, which activity [15] is on record?
Its activity is 46.2 % NHEJ.

What does the source list for canine HPRT locus, other sites?
activity ([4]; pair with 29223, canine D17): 0 % NHEJ; activity ([10]; pair with 101284, canine D17, 100 ng): 25.1 % NHEJ; activity ([7]; pair with 29250, canine D17, 100 ng): 9.2 % NHEJ; activity ([11]; pair with 101276, canine D17, 200 ng, 0 at 100 and 400 ng): 2.5 % NHEJ; activity ([3]; pair with 29216, canine D17): 0 % NHEJ; activity ([14]; pair with 101288, canine D17, 100 ng): 25.1 % NHEJ; activity ([8]; pair with 29250, canine D17, 200 ng, 0 at 100 and 400 ng): 2.8 % NHEJ
